In IntAct's records for PubMed 31570497:

B1: Envelopment polyprotein (Uukuniemi virus (strain S23)), P09613 (parent)
chain: MVRTYLLLLLLCGPATPFFNHLMDVTRRLLDSSNATWQRDQPDTHRLSRLDAHVMSMLGVGSHIDEVSVNHSQHLHNFRSYNCEEGRRTLTMMDPKSGKFKRLKCNENQTLSKDCASCIEKKSSIMKSEHLVYDDAICQSDYSSPEAMPDHETHLCRIGPLHIQHCTHEAKRVQHVSWFWIDGKLRVYDDFSVSWTEGKFLSLFDCLNETSKDHNCNKAVCLEGRCSGDLQFCTEFTCSYAKADCNCKRNQVSGVAVVHTKHGSFMPECMGQSLWSVRKPLSKRSVTVQQPCMDCESDCKVDHILVIVRHFYPDHYQACLGSTCLTGRAKDKEFKIPFKMADRLSDSHFEIRIWDKERSNEYFLESRCESVDACAAITCWFCRANWANIHCFSKEQVLILVAVSSLCILLLASVLRALKVIATFTWKIIKPFWWILSLLCRTCSKRLNKRAERLKESIHSLEEGLNNVDEGPREQNNPARAVARPNVRQKMFNLTRLSPVVVGMLCLACPVESCSDSISVTASSQRCSTSSDGVNSCFVSTSSLLQVSPKGQESCLILKGPTGTAVDSIRIKTTDIKLECVRRDLYWVPRVTHRCIGTRRCHLMGACKGEACSEFKINDYSPEWGHEEELMAQLGWSYCVEQCGGALCQCFNMRPSCFYLRKTFSHLSQDAFNIYECSEWSYRINVLVSTNSTHSNLTLKLGVPDSIPHGLISLSSVSQPPAIAYSECFGEDLHGTKFHTVCNRRTDYTLGRIGEIQCPTKADALAVSKRCISSDSIIFSKVHKDSVDCQSSIIDPMTIRNRNKLPSTVGSVTFWPTETSVEAAIPDLASATMLIRLDGYTIQFRSDSNKCSPRFLSLSGCYNCEAGAKLELEHVTDFGTALGILECPSLGYTTYYEVKNTLEKSIRTMHLNGSHVEAKCYFRCPNSESQLTIRGELIYLFNDDIRHHNQTLSPGLSPKSGSGWDPFGWFKASWLRAIWAILGGTVSLIIGVVIIYMVFTLCLKVKKS

Variants of: B1
Details: with gbf1_human GBF1, Q92538
Chain of gbf1_human GBF1, Q92538 (Q92538 whole entry): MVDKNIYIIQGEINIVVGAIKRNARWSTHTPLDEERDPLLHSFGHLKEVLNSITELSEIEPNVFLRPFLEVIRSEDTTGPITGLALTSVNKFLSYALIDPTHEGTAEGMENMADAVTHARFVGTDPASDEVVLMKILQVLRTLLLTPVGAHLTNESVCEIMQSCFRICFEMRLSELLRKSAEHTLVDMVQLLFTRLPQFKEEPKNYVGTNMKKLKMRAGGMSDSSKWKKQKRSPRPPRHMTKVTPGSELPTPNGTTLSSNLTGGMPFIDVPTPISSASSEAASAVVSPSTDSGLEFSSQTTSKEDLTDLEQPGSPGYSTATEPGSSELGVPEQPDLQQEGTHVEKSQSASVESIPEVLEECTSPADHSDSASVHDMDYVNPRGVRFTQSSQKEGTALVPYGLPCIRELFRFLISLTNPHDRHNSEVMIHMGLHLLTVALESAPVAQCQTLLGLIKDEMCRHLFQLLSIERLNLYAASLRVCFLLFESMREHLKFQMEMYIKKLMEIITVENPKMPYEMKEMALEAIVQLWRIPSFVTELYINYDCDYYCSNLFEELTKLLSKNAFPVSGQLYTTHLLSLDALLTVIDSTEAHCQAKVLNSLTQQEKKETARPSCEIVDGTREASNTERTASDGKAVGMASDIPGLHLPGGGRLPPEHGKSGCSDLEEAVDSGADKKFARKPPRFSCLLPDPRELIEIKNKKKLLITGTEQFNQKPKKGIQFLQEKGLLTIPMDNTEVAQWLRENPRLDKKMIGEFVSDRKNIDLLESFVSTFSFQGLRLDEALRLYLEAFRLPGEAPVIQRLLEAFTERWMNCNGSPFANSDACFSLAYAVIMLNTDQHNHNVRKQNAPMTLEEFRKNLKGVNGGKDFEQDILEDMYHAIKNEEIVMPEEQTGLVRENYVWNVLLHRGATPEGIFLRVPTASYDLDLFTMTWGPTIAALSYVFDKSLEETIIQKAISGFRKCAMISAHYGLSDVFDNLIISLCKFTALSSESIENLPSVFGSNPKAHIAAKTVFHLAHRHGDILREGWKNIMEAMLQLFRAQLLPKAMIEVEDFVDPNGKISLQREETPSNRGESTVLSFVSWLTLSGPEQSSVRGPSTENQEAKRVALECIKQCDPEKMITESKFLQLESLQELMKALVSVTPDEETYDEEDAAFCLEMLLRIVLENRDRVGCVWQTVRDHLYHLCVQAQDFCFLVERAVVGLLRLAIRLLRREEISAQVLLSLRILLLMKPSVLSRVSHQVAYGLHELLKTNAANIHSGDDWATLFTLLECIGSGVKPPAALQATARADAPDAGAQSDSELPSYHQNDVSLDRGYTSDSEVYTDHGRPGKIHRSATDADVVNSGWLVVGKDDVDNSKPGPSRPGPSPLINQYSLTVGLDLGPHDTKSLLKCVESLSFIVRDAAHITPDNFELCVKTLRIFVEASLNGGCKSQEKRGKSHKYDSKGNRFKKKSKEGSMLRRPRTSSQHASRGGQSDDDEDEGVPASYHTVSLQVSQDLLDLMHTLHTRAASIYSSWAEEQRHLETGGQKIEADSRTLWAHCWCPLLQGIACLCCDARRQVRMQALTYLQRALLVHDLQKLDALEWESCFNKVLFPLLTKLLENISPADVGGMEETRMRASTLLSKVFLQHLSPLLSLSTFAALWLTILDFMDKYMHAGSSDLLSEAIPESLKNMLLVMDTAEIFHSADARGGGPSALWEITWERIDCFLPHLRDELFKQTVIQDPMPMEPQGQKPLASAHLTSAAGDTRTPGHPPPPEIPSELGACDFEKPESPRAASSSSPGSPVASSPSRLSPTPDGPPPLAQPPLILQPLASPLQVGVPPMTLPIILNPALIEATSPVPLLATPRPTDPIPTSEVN

| Variant | effect of a mutation on the interaction |
| --- | --- |
| L438A;L439A | with no effect |
| L461A;E462A;E463A;G464A;L465A | with no effect |
